Assay results published in the DeepSol protein solubility set.

Test: soluble on expression in E. coli; label from the status in PepcDB or PDB records

Sequence	soluble on expression in E. coli
MSLKYVIGIDLGTSAVKTILVNQNGKVCAETSKRYPLIQEKAGYSEQNPEDWVQQTIEALAELVSISNVQAKDIDGISYSGQMHGLVLLDQDRQVLRNAILWNDTRTTPQCIRMTEKFGDHLLDITKNRVLEGFTLPKMLWVKEHEPELFKKTAVFLLPKDYVRFRMTGVIHTEYSDAAGTLLLHITRKEWSNDICNQIGISADICPPLVESHDCVGSLLPHVAAKTGLLEKTKVYAGGADNACGAIGAGILSSGKTLCSIGTSGVILSYEEEKERDFKGKVHFFNHGKKDSFYTMGVTLAAGYSLDWFKRTFAPNESFEQLLQGVEAIPIGANGLLYTPYLVGERTPHADSSIRGSLIGMDGAHNRKHFLRAIMEGITFSLHESIELFREAGKSVHTVVSIGGGAKNDTWLQMQADIFNTRVIKLENEQGPAMGAAMLAAFGSGWFESLEECAEQFIREAAAFYPKAQNVQKYKTLFDLYKNIYTHTKDLNTALKSFRKNEGHHHHHH	soluble
MSLKYYLAPMEGITGFIYRNSYEKFFGGIDKYFAPFVVPNSSKSLKTKELRDVLPENNKGINLVPQILTNDSEGFISTARKLKQLGYNEINLNLGCPSGTVVGKKRGSGFLAHKEELDKFLEEIFKIDDMKLSIKTRLGMDKPEEFYELIKIYNKYPMEELIIHPRTRQDFYANKPNLEVFKDAISLSKNPICYNGDIFTVEDHNKLIETFPEVDKIMLGRGILANPALMNEILNNEFMDKKVLKEFHDEVFNKYREVFNEDRNAMFRMKELWGYMIYMFSNNKKYAKKIKKAQKVVEYNQAVTSLFLEQDILKGAGLFSSEEGHHHHHH	soluble
MSLLAGVKLEKRDKTLVDATEALAGKAVGFYFSAHWCPPCRGFTPILKDFYEEVEDEFEVVFVSFDRSESDLKMYMSEHGDWYHIPYGNDAIKELSTKYGVSGIPALIIVKPDGTEVTKDGRNDVQNGKDPKATVAKWKA	not soluble
MSLLITRFIADHQGHREGPDGLRWGVESICTQLTELGVPIAPSTYYDHINREPSRRELRDGELKEHISRVHAANYGVYGARKVWLTLNREGIEVARCTVERLMTKLGLSGTTRGKARRTTIADPATARPADLVQRRFGPPAPNRLWVADLTYVSTWAGFAYVAFVTDAYARRILGWRVASTMATSMVLDAIEQAIWTRQQEGVLDLKDVIHHTDRGSQYTSIRFSERLAEAGIQPSVGAVGSSYDNALAETINGLYKTELIKPGKPWRSIEDVELATARWVDWFNHRRLYQYCGDVPPVELEAAYYAQRQRPAEGHHHHHH	not soluble
MSLLKINSQLFAIEDTLDDLAAAFLNLEVVRTYKAAQKAFLADKHLQKEISNFQHYNEDYNDQKTFIKYRPEVKQLRRKIFEKKRQLDLNEKVIALRRAEVDLQEVLAKIAQKIAESVSSDVFVDTGLPLAPHKPPHKKGYGNNIKEREGHHHHHH	soluble
MSLLKISGKFFDEDNVDNLIVLRQSIKELADNGFRVGIVTGGGSTARRYIKLAREIGIGEAYLDLLGIWASRLNAYLVMFSLQDLAYMHVPQSLEEFIQDWSHGKVVVTGGFQPGQSTAAVAALVAEASSSKTLVVATNVDGVYEKDPRIYADVKLIPHLTTQDLRKILEGSQSVQAGTYELLDPLAIKIVERSKIRVIVMNYRKLNRIIDILKGEEVSSIIEPVEGHHHHHH	not soluble
MSLLRIEPDLSHFKAGTYRFTPQMTVREMLKLLESGKEAQFPLRLVEGMRLSDYLKQLREAPYIKHTLSDDKYATVAQALELENPEWIEGWFWPDTWMYTANTTDVALLKRAHKKMVKAVDSAWEGRADGLPYKDKNQLVTMASIIEKETAVASERDQVASVFINRLRIGMRLQTDPTVIYGMGERYNGKLSRADLETPTAYNTYTITGLPPGAIATPGADSLKAAAHPAKTPYLYFVADGKGGHTFNTNLASHNKSVQDYLKVLKEKNAQEGHHHHHH	soluble
MSLLSAFDTTAQRLGTASQNIEKDFWVCWTLDALFNGLSERGPRLLFKGGTSLSKGFGLINRFSEDIDVTVFRDDIGEPATIEELNVLSRNKRRARLDAIKEACQAYINGPLRAELTAILQKRLQAAGLSAGDARVEADGADSDGQTLLIWYPAATPRSDYVRAAIKIESGAKSALDPNSEVPIKAYVDDDLPALDLTVPAVRTVDPERTFWDKVVILHGLRRWFDKRGELRGGGQRVSRHYYDLHRLTAAPVGAAAIDDAALGADCVAHARMFFNRPDYDLATAAPGSFALAPHDEMIEQLRTDYRAMQGMIFGDPPSFEAVLKSINSLETQLNKDIANEGGPTREGHHHHHH	soluble
MSLLVQFDEFKGHSHEQFMEELDTIMLVSINKLHDNMDLRRRLLIYSVFGKVFQHRKMGILAPHGQEETF	not soluble
MSLMPLLDKLREQYGVGPVCSELHIAPSTYYHCQQQRHHPDKRSARAQHDDWLKREIQRVYDENHQVYGVRKVWRQLLREGIRVARCTVARLMAVMGLAGVLRGKKVRTTISRKAVAAGDRVNRQFVAERPDQLWVADFTYVSTWQGFVYVAFIIDVFAGYIVGWRVSSSMETTFVLDALEQALWARRPSGTIHHSDKGSQYVSLAYTERLKEAGLLASTGSTGDSYDNAMAESINGLYKAEVIHRKSWKNRAEVELATLTWVDWYNNRRLLGRLGHAPPAEAEKAYYASIGNDDLAAEGHHHHHH	not soluble
MSLMQEETFYSVRMRASMNGSHEDGGKHISGGERLIPFHEMKHTVNALLEKGLSHSRGKPDFMQIQFEEVHESIKTIQPLPVHTNEVSCPEEGQKLARLLLEKEGVSRDVIEKAYEQIPEWSDVRGAVLFDIHTGKRMDQTKEKGVRVSRMDWPDANFEKWALHSHVPAHSRIKEALALASKVSRHPAVVAELCWSDDPDYITGYVAGKKMGYQRITAMKEYGTEEGCRVFFIDGSNDVNTYIHDLEKQPILIEWEEDHDSEGHHHHHH	soluble
MSLMTEMQQRAQLHRQIWKIADEVRGAVDGWDFKQYVLGTLFYRFISENFTDYMQAGDSSIDYAAMPDSIITPEIKDDAVKVKGYFIYPGQLFCNIAAEAHQNEELNTKLKEIFTAIESSASGYPSEQDIKGLFDDFDTTSSRLGSTVADKNKRLAAVLKGVAELDFGNFENHHIDLFGDAYEYLISNYAANAGKSGGEFFTPQSVSKLIARLAVHGQEKVNKIYDPACGSGSLLLQAKKQFDEHIIEEGFFGQEINHTTYNLARMNMFLHNVNYNQFHIELGDTLTNPKLKDSKPFDAIVSNPPYSINWIGSDDPTLINDDRFAPAGVLAPKSKADFAFILHALNYLSGRGRAAIVSFPGIFYRGGAEQKIRQYLVEGNYVETVIALAPNLFYGTGIAVNILVLSKHKDNTDIQFIDASGFFKKETNNNVLIEEHIAEIVKLFADKADVPHIAQNAAQQTVKDNGYNLAVSSYVEAEDTREIIDIKQLNAEIGETVAKIERLRREIDEVIAEIEAEGHHHHHH	soluble
MSLNASAPIPLNETQRLLRIRELCVLENTSDDVFDEIVAMTADFFQTPIALISIVDEHRQWFRARVGLNAQETPRNVSFCAYTILSDSLFEIPDATLDDRFMNNSLVTGHPDIRYYAGAPLITDDGIALGSLCVIDTKPREPMSEHQMQMLKRFASLVMKRIVSLRLSCFIDQPTGLYNRSRLQEDIHQALLSSVDYQLVVVDMITSAFLNDIVKALGYSFSQDLVTEIKSRLEHLLPPTCSLYKVSPTRFGFLLPGERAPDHLFRTILEDFETPVECRGIPVQMQVGLGVVTLNRDPTEEQDWMRMVISAADDARDRNLGWAMYEPHFDAAQQRAFKLLSSLTSAVHSHDQLRLVYQPRIDLASGLCTSVEALLRWNHPTLGPIGPAEFVPLAEKTALMRPLSLWVLTSAIEQAARWQQQGFDFRIAINVTPEDLTGPAFTDRMIRLLGQHKIDPTRFELEFTEGALMHNPAEVRHQLERMRQMGMDVAIDDFGTGYSNWNYLRQLPATTVKLDQSLIRNLASDKTDQRLVKALIGLAKKLGYCVVAEGIETDEIRRLVKQWGCDEGQGYLISKPMEADAVLNWLGPDRRLQTVTEAAEAAVIRDKRLEGHHHHHH	soluble
MSLNEEQLSKRLEKVASYITKNERIADIGSDHAYLPCFAVKNQTASFAIAGEVVDGPFQSAQKQVRSSGLTEQIDVRKGNGLAVIEKKDAIDTIVIAGMGGTLIRTILEEGAAKLAGVTKLILQPNIAAWQLREWSEQNNWLITSEAILREDNKVYEIMVLAPSEKPVTWTKQEIFFGPCLLKEQSAIFKSKWRHEANTWQNIIQTISNNQPVSTENQAKIRELEHKIALVEDVLKEGHHHHHH	soluble
MSLNEHKHNYNMKINCLLALALSASSLAAQDAVIRVDAGKVENKITPYLYGACMEDVNHEIYGGLYDQKIFGESFEEPVSMDNFIGFTRCEGVWKLQDGQLSVQAHPGAKLVYDDTQLSDGTVGVDLKFTNGTSSSNNAGLLLRVGEYGGGADNFDGYEVSLFADGKRLLLGKHLHNWQELKTTPVDVDPMQWNRMEVKLDGDELVILLNDCEVLRFEDRDTGLRNGKVAFRNWGADVSYRSLTIGSNTPVKLLTKATPQVSGMWDAFADLTAAAVYKQIADKPFHGRYAQEIEYLVGTGKVGIANRSLNRWGISVRQGEKKTGSLYLKGKAEVRVALQSVDGEKEYAVQCIRANAGDWKKYTFELTPDKTDENARLAIYLEEKGRIQVDMVTLMNGADRQFCGLPLRNDIGQAMVDQGLRFLRYGGTMVNAPEYRFKKMIGDRAERPPYKGHWYTYSTNGFGIEDFLHFCEKAGFMPAYAVNVEESAQDMADMIEYLNGSVDTKWGKKRAENGHPEPYGLKYLEIGNEEVIWGDIEADYQHYIDRFNDIYEAVHAKDPEVQFIHSAWWRPESPNMEKVFKALDGKAAYWDYHPWTDDLGSHVNIDRELTDMKAKFLKWNPKTSMRCAIFEENGNLHNVQRAIVHATVQNVVRRHGDFILTTCAANALQPYLQNDNGWDQGQIFFTSGQVWGMPTFYAQQMSSAHHHPLRLWSETVGELDMTATTNEARDEVILHVVNTSSEVRETQVSLSGFIPKGNMEIYTLSGELNDENLPDTPTWILPKATWKQAPGSDFTYSFPGYSYTIVVLKEGHHHHHH	soluble
MSLNEITLNVLYNLPGFTKFHQPLADEFMKKNPDVKINFLAPAAGYNEGQQQVLRSAVTGNLPDVYFSGYNLTAELVHTLAPRNQITDLGPFIQAEGGQAFLDKNYSPKMAALGQIDGKQYGLPVNASSPIIYINSDLVTKAGGDPDKMPTTFPELIALAKKIKALDPKFAGMSYDINGWPDDWLWQALVVEQGGKLVDDKTKTVAFDNEIGLNALKMTRQFVTEGGQNLLDWDQSRQQFGAGLTGFIFSTPAHVQTIQGLVGDRFKLKTATFPLDNKEKGGVPTGGNSAVILTQEKAKQDAAWKYLKWITGPEAQNTIVRITGYLPTNKLATGPDFLAPYYVENPNVKTASLQADRSLPWAGYPGGDSVRIWRTQRDIIGTVMRGEVTPEAGLKQIVEQTNALLKEGHHHHHH	soluble
MSLNETYMMITFQSGMDYWKRCLKGFEDAAQALNVTVEYRGAAQYDIQEQITVLEQAIAKNPAGIAISAIDPVELTDTINKAVDAGIPIVLFDSGAPDSHAHSFLGTNNYNAGMNAAYKMAELLDGEGEVAVITLPNQLNHQERTTGFKETLEAEFPAIEVIAVEDGRGDSLHSRRVAHQLLEDYPNLAGIFATEANGGVGVGDAVRLESRAGEIQIISFDTDKGTLDLVDEGIISATLAQGTWNMGYWSLTYLFHLHHGLTEPQILQTREEAPLPLYVDTGITIVTDENVDYYYADEGHHHHHH	soluble
MSLNGEGAVPTLVGYGADTAIETSRRTSRPLAAPVVRKLAKELAVDLAALQRGSGAGGVITRADVLAAARGGVGAGPDVRPVHGVHARMAEKMTLSHKEIPTAKASVEVICAELLRLRDRFVSAAPEITPFALTLRLLVIALKHNVILNSTWVDSGEGPQVHVHRGVHLGFGAATERGLLVPVVTDAQDKNTRELASRVAELITGAREGTLTPAELRGSTFTVSNFGALGVDDGVPVINHPEAAILGLGAIKPRPVVVGGEVVARPTMTLTCVFDHRVVDGAQVAQFMCELRDLIESPETALLDLEGHHHHHH	soluble
